Laboratory results taken from patent US9933424 (SEOUL NATIONAL UNIVERSITY HOSPITAL, dated 2018).

How the values were obtained:
[1] = biological target: T1, adenylyl cyclase-associated protein 1 (CAP1), human, of THP-1 cells (human, UniProt Q01518 2-475); assay: western blot of cell lysates probed with mFc-human resistin as primary antibody, anti-mFc-HRP detection
T1 construct: Endogenous full-length protein in THP-1 lysates or on THP-1 cells; also called human resistin receptor; 55 kDa protein

[2] = biological target: T1, adenylyl cyclase-associated protein 1 …; assay: conclusion of Example 4 (western blot, immunofluorescence, flow cytometry on THP-1 cells)

T1 sequence (Q01518 2-475 limits assumed): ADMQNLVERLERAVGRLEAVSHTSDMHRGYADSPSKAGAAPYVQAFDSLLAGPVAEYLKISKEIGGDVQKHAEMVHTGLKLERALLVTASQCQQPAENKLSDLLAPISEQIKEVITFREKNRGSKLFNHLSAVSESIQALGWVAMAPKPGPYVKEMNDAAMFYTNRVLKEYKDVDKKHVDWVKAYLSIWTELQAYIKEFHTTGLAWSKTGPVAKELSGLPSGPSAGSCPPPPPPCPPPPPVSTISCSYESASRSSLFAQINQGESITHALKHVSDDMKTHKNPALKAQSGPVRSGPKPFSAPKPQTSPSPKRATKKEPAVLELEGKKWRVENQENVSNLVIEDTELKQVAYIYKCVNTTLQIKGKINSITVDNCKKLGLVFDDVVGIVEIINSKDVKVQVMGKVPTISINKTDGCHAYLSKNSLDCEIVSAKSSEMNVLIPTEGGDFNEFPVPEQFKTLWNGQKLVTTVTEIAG

Binder | binding result [1] | binding result [2]
mFc-human resistin fusion protein (mouse Fc region of immunoglobulin fused to the N-terminus of human resistin) (Fc fusion, UniProt Q9HD89 19-108, looked up, Expressed in HEK293-F cells from pcDNA3.1 and purified on mFc-specific beads; also called mFc-human resistin protein; mFc human resistin recombinant protein; not shown: mouse immunoglobulin Fc region (mFc); prot) KTLCSMEEAINERIQEVAGSLIFRAISSIGLECQSVTSRGDLATCPRGFAVTGCTCGSACGSWDVRAETTCHCQCAGMDWTGARCCRVQP | binds | –
recombinant human resistin protein (ligand, UniProt Q9HD89 19-108, looked up, also called rhResistin; human recombinant resistin) KTLCSMEEAINERIQEVAGSLIFRAISSIGLECQSVTSRGDLATCPRGFAVTGCTCGSACGSWDVRAETTCHCQCAGMDWTGARCCRVQP | – | binds
